B1: VRC01 from stably transformed (transgenic) Nicotiana tabacum plants (antibody, V domains shown)
VH: QVQLVQSGGQMKKPGESMRISCRASGYEFIDCTLNWIRLAPGKRPEWMGWLKPRGGAVNYARPLQGRVTMTRDVYSDTAFLELRSLTVDDTAVYFCTRGKNCDYNWDFEHWGRGTPVIVSS
VL: EIVLTQSPGTLSLSPGETAIISCRTSQYGSLAWYQQRPGQAPRLVIYSGSTRAAGIPDRFSGSRWGPDYNLTISNLESGDFGVYYCQQYEFFGQGTKVQVD
modifications: N-glycan at N297 in the CH2 region (glycopeptide […]), GnGnXF^3 as the major glycan structure | N-glycan in the FR3 of the VL region (glycopeptide […]), GnGnXF^3 as the major glycan structure
B2: VRC01 from transiently transformed Nicotiana benthamiana plants (antibody, V domains shown)
VH: QVQLVQSGGQMKKPGESMRISCRASGYEFIDCTLNWIRLAPGKRPEWMGWLKPRGGAVNYARPLQGRVTMTRDVYSDTAFLELRSLTVDDTAVYFCTRGKNCDYNWDFEHWGRGTPVIVSS
VL: EIVLTQSPGTLSLSPGETAIISCRTSQYGSLAWYQQRPGQAPRLVIYSGSTRAAGIPDRFSGSRWGPDYNLTISNLESGDFGVYYCQQYEFFGQGTKVQVD
modifications: N-glycan at N297 in the CH2 region (glycopeptide […]), GnGnXF^3 as the major glycan structure | N-glycan in the FR3 of the VL region (glycopeptide […]), GnGnXF^3 as the major glycan structure
B3: VRC01 from HEK cells (antibody, V domains shown)
VH: QVQLVQSGGQMKKPGESMRISCRASGYEFIDCTLNWIRLAPGKRPEWMGWLKPRGGAVNYARPLQGRVTMTRDVYSDTAFLELRSLTVDDTAVYFCTRGKNCDYNWDFEHWGRGTPVIVSS
VL: EIVLTQSPGTLSLSPGETAIISCRTSQYGSLAWYQQRPGQAPRLVIYSGSTRAAGIPDRFSGSRWGPDYNLTISNLESGDFGVYYCQQYEFFGQGTKVQVD
modifications: N-glycan at N297 in the CH2 region (glycopeptide […]), GnGnF^6 as the predominant glycan structure | N-glycan in the FR3 of the VL region (glycopeptide […]), at least ten glycan structures

molecular target: HIV-1 envelope glycoprotein gp120 IIIB (HIV-1 (isolate IIIB), UniProt P04578 33-511); test: SPR

| Binder | koff [s⁻¹] |
| --- | --- |
| B1 | 0.000126 |
| B2 | 0.000159 |
| B3 | 5.6e-05 |

Reference: PMC4112721 (2013)
